± gives the uncertainty stated by the source.
Assay: self-splicing fitness, log relative to wild type (ln ratio); higher = more splicing; Tetrahymena group I intron in knt gene, E. coli kanamycin selection, DiMSum; sequences stand for … in CUCUCU…GGAGGGAAAAGUUAUCAGGCAUGCACCUGGUAGCUAGUCUUUAAACCAAUAGAUUGCAUCGGUUUAAAAGGCAAGACCGUCAAAUUGCGGGAAAGGGGUCAACAGCCGUUCAGUACCAAGUCUCAGGGGAAACUUUGAGAUGGCCUUGCAAAGGGUAUGGUAAUAAGCUGACGGACAUGGUCCUAACCACGCAGCCAAGUCCUAAGUCAACAGAUCUUCUGUUGAUAUGGAUGCAGUUCACAGACUAAAUGUCGGUCGGGGAAGAUGUAUUCUUCUCAUAAGAUAUAGUCGGACCUCUCCUUAAUGGGAGCUAGCGGAUGAAGUGAUGCAACACUGGAGCCGCUGGGAACUAAUUUGUAUGCGAAAGUAUAUUGAUUAGUUUUGGAGUACUCGUGGUCG
Outline: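 Six replicate transformations of E. coli BL21(DE3) with a pET-22b(+) library were grown overnight at 37°C or 30°C. The library randomised all eight P1ex-region intron nucleotides, the intron lying in the knt kanamycin-resistance gene, and plates were LB agar with or without 25 μg/mL kanamycin plus 100 μg/mL carbenicillin, 50 μM IPTG and 0.2% rhamnose. Pooled colonies were amplicon-sequenced on an Illumina HiSeq 2500, and fitness is the DiMSum error-weighted combination of wild-type-normalised replicate fold changes, kanamycin versus none.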

Sequence | self-splicing fitness (ln) (30 °C) | self-splicing fitness (ln) (37 °C)
UCGGAGCAAUAUUACGGUCG | -2.01 ± 0.15 | -0.73 ± 0.25
CAUAAGCAAUAUUACGUGAA | -3.45 ± 0.2 | -2.14 ± 0.18
AAAUAGCAAUAUUACGUAAG | -1.37 ± 0.078 | -0.721 ± 0.096
UUGGAGCAAUAUUACGGGAG | -4.02 ± 0.39 | -2.62 ± 0.31
AAUAAGCAAUAUUACGUCGG | -1.91 ± 0.14 | -1.75 ± 0.18
GAAAAGCAAUAUUACGGCGA | -0.334 ± 0.07 | -0.204 ± 0.074
GACUAGCAAUAUUACGAAAA | -2.41 ± 0.25 | -0.685 ± 0.15
AAUAAGCAAUAUUACGUAGG | -2.11 ± 0.16 | -0.935 ± 0.17
AGGUAGCAAUAUUACGAAGU | -3.22 ± 0.026 | -1.56 ± 0.037
AUUUAGCAAUAUUACGUAAU | -0.35 ± 0.082 | -0.32 ± 0.12
UUACAGCAAUAUUACGAUGG | -1.16 ± 0.062 | -0.0316 ± 0.086
AGCAAGCAAUAUUACGCAUA | -1.96 ± 0.14 | -1.06 ± 0.15
UCCGAGCAAUAUUACGAUUU | -3.56 ± 0.25 | -2.49 ± 0.44
CUCAAGCAAUAUUACGUUCA | -2.07 ± 0.15 | -1.46 ± 0.14
UCUCAGCAAUAUUACGCCUA | -2.3 ± 0.19 | -1.22 ± 0.2
ACCGAGCAAUAUUACGUUAC | -4.23 ± 0.22 | -2.66 ± 0.18
CAGGAGCAAUAUUACGAGUG | -2.51 ± 0.2 | -1.95 ± 0.17
UAUGAGCAAUAUUACGAGCG | -1.32 ± 0.12 | -1.26 ± 0.16
CCUAAGCAAUAUUACGGUAU | -3.72 ± 0.23 | -1.85 ± 0.24
UGGAAGCAAUAUUACGCCCC | -1.69 ± 0.41 | -1.36 ± 0.35
GCUAAGCAAUAUUACGACCG | -0.349 ± 0.17 | 0.0102 ± 0.24

Sequence | self-splicing fitness (ln) (30 °C) | self-splicing fitness (ln) (37 °C)
UUCGAGCAAUAUUACGAUUG | – | -2.52 ± 0.34
CGGCAGCAAUAUUACGUUAA | -2.44 ± 0.16 | -1.1 ± 0.11
UUCUAGCAAUAUUACGAUAU | -2.27 ± 0.34 | -1.77 ± 0.3
UACUAGCAAUAUUACGUCGC | -4.8 ± 0.46 | -3.62 ± 0.24
UUUUAGCAAUAUUACGGUCG | -0.778 ± 0.2 | -0.345 ± 0.18
AAUAAGCAAUAUUACGAUCG | -1 ± 0.081 | -0.0681 ± 0.096
UUAAAGCAAUAUUACGUCUU | -1.23 ± 0.082 | -0.988 ± 0.12
UGCCAGCAAUAUUACGGGCU | -2.6 ± 0.19 | -1.61 ± 0.18
GUUCAGCAAUAUUACGGCCA | -0.626 ± 0.12 | -0.426 ± 0.15
CUUCAGCAAUAUUACGCUAC | -2.4 ± 0.22 | -2.25 ± 0.37
UGCGAGCAAUAUUACGUAUC | -1.76 ± 0.16 | -2.37 ± 0.34
GCUAAGCAAUAUUACGGAUA | -2.45 ± 0.24 | -0.375 ± 0.18
UCGAAGCAAUAUUACGAUUG | -2.47 ± 0.27 | -1.73 ± 0.23
AAAAAGCAAUAUUACGCGCU | -0.379 ± 0.076 | -0.358 ± 0.091
UUCAAGCAAUAUUACGUACU | -1.3 ± 0.13 | -0.455 ± 0.15
GAGAAGCAAUAUUACGCUAC | -3.38 ± 0.18 | -1.58 ± 0.18
CUAUAGCAAUAUUACGAAUA | -2.99 ± 0.34 | -1.47 ± 0.22
AAUGAGCAAUAUUACGCGGA | -2.88 ± 0.21 | -2.13 ± 0.21
UGGCAGCAAUAUUACGGCGG | -0.882 ± 0.11 | 0.549 ± 0.15
GAUUAGCAAUAUUACGUUGA | -2.8 ± 0.22 | -2.25 ± 0.19
UUACAGCAAUAUUACGAAGU | -3.35 ± 0.29 | -2.7 ± 0.36
